Assay results published in patent US20180282402A1 (ATYR PHARMA, published 2018).
Substitutions are numbered along the chain they refer to.

T1: Mouse HARS (mouse, UniProt Q61035 1-509, limits assumed)
T1 construct: also called mouse HRS
T1 sequence: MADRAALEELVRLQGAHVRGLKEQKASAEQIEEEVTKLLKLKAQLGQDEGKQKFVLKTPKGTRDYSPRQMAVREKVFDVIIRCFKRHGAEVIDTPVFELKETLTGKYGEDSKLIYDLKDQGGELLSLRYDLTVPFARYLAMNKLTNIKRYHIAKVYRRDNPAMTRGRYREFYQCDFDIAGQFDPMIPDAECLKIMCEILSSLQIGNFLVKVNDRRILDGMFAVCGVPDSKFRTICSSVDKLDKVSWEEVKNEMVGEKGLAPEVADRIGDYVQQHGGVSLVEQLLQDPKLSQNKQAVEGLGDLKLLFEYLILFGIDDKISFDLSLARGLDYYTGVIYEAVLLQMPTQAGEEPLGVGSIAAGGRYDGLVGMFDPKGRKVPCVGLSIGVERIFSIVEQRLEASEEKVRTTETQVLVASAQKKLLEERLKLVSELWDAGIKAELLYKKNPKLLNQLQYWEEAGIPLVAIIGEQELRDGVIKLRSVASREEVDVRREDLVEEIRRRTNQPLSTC

T2: Human HARS (human, UniProt P12081 1-509, limits assumed)
T2 construct: also called human HRS; human histidyl-tRNA synthetase
T2 sequence: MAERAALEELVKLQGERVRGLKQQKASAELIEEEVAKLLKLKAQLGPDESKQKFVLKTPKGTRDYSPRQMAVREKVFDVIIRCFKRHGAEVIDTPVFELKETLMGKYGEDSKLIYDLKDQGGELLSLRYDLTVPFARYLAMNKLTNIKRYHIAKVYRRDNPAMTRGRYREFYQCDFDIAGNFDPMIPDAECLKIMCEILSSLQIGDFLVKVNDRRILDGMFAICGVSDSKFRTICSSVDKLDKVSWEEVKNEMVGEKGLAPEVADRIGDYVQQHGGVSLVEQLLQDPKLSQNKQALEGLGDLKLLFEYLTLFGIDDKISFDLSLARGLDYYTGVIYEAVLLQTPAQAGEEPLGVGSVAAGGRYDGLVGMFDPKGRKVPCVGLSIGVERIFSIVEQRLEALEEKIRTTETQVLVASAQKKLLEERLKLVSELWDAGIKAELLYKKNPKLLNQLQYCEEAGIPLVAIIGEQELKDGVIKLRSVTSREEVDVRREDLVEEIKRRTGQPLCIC

B1: AB04-425 (antibody, V domains shown)
VH: QVQLVESGGGLVKPGGSLRLSCAASGFTFSDYYMTWIRQAPGKGLEWVSYISGSFRYTNYADKVKGRFTISRDNAKNSLYLQMNSLRDEDTAVYFCARYVYQVVAIGDLWGQGTLVTVSS
VL: DIQMTQSPSSVSASVGDRVTITCRASQGISSWLAWYQQKPGRAPKLLIFAASSLQSGVPSRFSGSGSGTHFTLTISSLQPEDFATYYCQQAESFPYTFGQGTKLEIK
notes: Human; IgG1m(zf) kappa
B2: AB13-112 (IgG1m(za) kappa) (antibody, V domains shown)
VH: QVQLVESGGGLVKPGGSLRLSCAASGFTFSDYYMSWIRQAPGKGLEWVSYISDKSRYTKYTDKVRGRFTISRDNAKNSLYLQMNSLRAEDTAVYYCARYLYQVIAIADAWGQGTLVTVSS
VL: B1 VL with Y36F, R42K, A50V, S53N, Q55E, H70D
notes: Human
B3: AB04-168 (antibody, IgG4, V domains shown)
VH: B1 VH
VL: B1 VL
notes: Human; IgG4-2 kappa
B4: AB13-112 (IgG4 kappa) (antibody, V domains shown)
VH: B2 VH
VL: B1 VL with Y36F, R42K, A50V, S53N, Q55E, H70D
notes: Human
B5: AB13-288 (IgG1m(zf) kappa) (antibody, V domains shown)
VH: B2 VH
VL: B1 VL with Y36F, R42K, A50V, S53N, Q55E, H70D
notes: Human
B6: AB04-439 (antibody, V domains shown)
VH: B1 VH with K63S
VL: B1 VL
notes: Human; IgG1m(zf) kappa
B7: KL31-241 (antibody, V domains shown)
VH: QVQLVQSGAEVKKPGASVKVSCKASGYTFTDYCIGWIRQAPGQGLEWMGDICPGDAYTNDNEKFKDRATMTADTSTSTAYMELSSLRSEDTAVYYCARGEEQLGLRNAMDYWGQGTSVTVSS
VL: DIVMTQSPDSLAVSLGERATINCQSQSVSTSTYNYMHWYQQKPGQPPKLLIKYASNLESGVPDRFSGSGSGTDFTLTISSLQAEDVATYYCQHSWEIPWTFGGGTKLEIK
notes: Humanized; IgG1m(zf) kappa
B8: KL31-513 (antibody, IgG4, V domains shown)
VH: B7 VH with A56T, S117L
VL: EIVLTQSPATLSLSPGERATLSCQSQSVSTSTYNYMHWYQQKPGQAPRLLIKYASNLESGIPDRFSGSGSGTDFTLTISRLEPEDFATYYCGHSYEIPWTFGGGTKVEIK
notes: Humanized; IgG4-2 kappa
B9: KL31-240 (antibody, IgG4, V domains shown)
VH: B7 VH with A56T, S117L
VL: B8 VL
notes: Humanized; IgG4 kappa
B10: KL31-532 (antibody, V domains shown)
VH: B7 VH with A56T, S117L
VL: B7 VL with Q92G, W95Y, L107V
notes: Humanized; IgG1m(zf) kappa
B11: AB13-259 (IgG1m(zf) kappa) (antibody, V domains shown)
VH: B2 VH with K63S
VL: B1 VL with Y36F, R42K, A50V, S53N, Q55E, H70D
notes: Human
B12: AB04-160 (antibody, V domains shown)
VH: B1 VH with K63S
VL: B1 VL with E92K
notes: Human; IgG1m(zf) kappa
B13: AB13-259 (IgG4-2 kappa) (antibody, V domains shown)
VH: B2 VH with K63S
VL: B1 VL with Y36F, R42K, A50V, S53N, Q55E, H70D
notes: Human
B14: AB04-276 (antibody, V domains shown)
VH: B1 VH with R56A, N59D, K63S, L109Y
VL: B1 VL with E92K
notes: Human; IgG1m(zf) kappa
B15: AB04-483 (antibody, V domains shown)
VH: B1 VH with F55N, R56A, K63S, L109Y
VL: B1 VL with E92K
notes: Human; IgG1m(zf) kappa
B16: AB04-174 (antibody, V domains shown)
VH: B1 VH with F55N, R56A, N59D, K63S, V103T
VL: B1 VL with E92K
notes: Human; IgG1m(zf) kappa
B17: AB13-227 (antibody, V domains shown)
VH: B2 VH with K54S, K63S, D108K, A109S
VL: B1 VL with Y36F, R42K, A50V, S53N, Q55E, H70D
notes: Human; IgG1m(zf) kappa
B18: AB04-151 (antibody, V domains shown)
VH: B1 VH with K63S, L109Y
VL: B1 VL with E92K
notes: Human; IgG1m(zf) kappa
B19: AB04-380 (antibody, V domains shown)
VH: B1 VH with D62P, K63S
VL: B1 VL
notes: Human; IgG1m(zf) kappa
B20: AB04-365 (antibody, V domains shown)
VH: B1 VH with R56A, K63S, L109Y
VL: B1 VL with E92K
notes: Human; IgG1m(zf) kappa
B21: AB13-166 (antibody, V domains shown)
VH: B2 VH with D62P, K63S
VL: B1 VL with Y36F, R42K, A50V, S53N, Q55E, H70D
notes: Human; IgG1m(zf) kappa
B22: AB04-411 (antibody, V domains shown)
VH: B1 VH with F55N, R56A, N59D, K63S, I106V
VL: B1 VL with E92K
notes: Human; IgG1m(zf) kappa
B23: AB13-147 (antibody, V domains shown)
VH: B2 VH with K54S, K63S, D108K, A109S
VL: B1 VL with Y36F, R42K, A50V, S53N, Q55E, H70D, E92N
notes: Human; IgG1m(zf) kappa
B24: AB04-482 (antibody, V domains shown)
VH: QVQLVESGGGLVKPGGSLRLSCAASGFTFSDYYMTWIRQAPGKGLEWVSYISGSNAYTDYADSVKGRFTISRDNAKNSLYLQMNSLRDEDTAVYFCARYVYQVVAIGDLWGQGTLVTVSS
VL: B1 VL with E92K
notes: Human; IgG1m(zf) kappa
B25: AB04-121 (antibody, V domains shown)
VH: B1 VH with F55N, R56A, N59D, K63S, L109Y
VL: B1 VL with E92K
notes: Human; IgG1m(zf) kappa
B26: KL31-600 (antibody, human IgG1, V domains shown)
VH: QVQLQQSGAELVRPGSSVRMSCKAVGYTFTDYCIGWIKQRPGHGLEWIGDICPGDAYTNDNEKFKDKATLTADTSSTTAYMQLSSLTSEDSAIYYCARGEEQVGLRNAMDYWGQGTSVTVSS
VL: DIVLTQSPASLAVSLGQRATISCQSQSVSTSTYNYMHWYQQKPGQPPKLLIKYASNLESGVPARFSGSGSGTDFTLNIHPVEEEDTATYYCQHSWEIPWTFGGGTKLEIK
B27: KL31-313 (antibody, IgG2a, V domains shown)
VH: B26 VH
VL: B26 VL
notes: Mouse; IgG2a kappa
B28: KL31-275 (antibody, IgG1, V domains shown)
VH: B26 VH
VL: B26 VL
notes: Mouse; IgG1 kappa
B29: KL31-523 (antibody, V domains shown)
VH: B7 VH with L103V
VL: B7 VL
notes: Humanized; IgG1m(zf) kappa
B30: KL31-261 (antibody, V domains shown)
VH: B7 VH with A56V, S117L
VL: B7 VL with L107V
notes: Humanized; IgG1m(zf) kappa
B31: KL31-131 (antibody, V domains shown)
VH: B7 VH with A56T, S117L
VL: B8 VL with G92Q, Y95W
notes: Humanized; IgG1m(zf) kappa

biological target: T1, Mouse HARS; assay: SPR (ProteOn); HRS protein immobilized, antibody as analyte

Row | Binder | Kd
1 | B1 | 0.127 nM
2 | B2 | < 0.001 nM
3 | B3 | 0.145 nM
4 | B4 | 0.0025 nM
5 | B5 | < 0.001 nM
6 | B6 | 0.13 nM
7 | B7 | 5.1 nM
8 | B8 | 1.25 nM
9 | B9 | 0.942 nM
10 | B10 | 0.37 nM

biological target: T2, Human HARS; assay: as above

Row | Binder | Kd
11 | B1 | 0.01 nM
12 | B11 | 0.015 nM
13 | B12 | 0.06 nM
14 | B13 | 0.029 nM
15 | B14 | 0.46 nM
16 | B15 | 0.265 nM
17 | B16 | 170 nM
18 | B17 | < 0.05 nM
19 | B2 | < 0.001 nM
20 | B18 | 0.025 nM
21 | B19 | 0.026 nM
22 | B3 | 0.015 nM
23 | B4 | < 0.001 nM
24 | B20 | 0.185 nM
25 | B21 | < 0.001 nM
26 | B22 | 1.9 nM

Row | Binder | Kd
27 | B23 | 0.024 nM
28 | B24 | 0.26 nM
29 | B25 | 0.9 nM
30 | B5 | < 0.001 nM
31 | B6 | 0.048 nM
32 | B26 | 12.2 nM
33 | B27 | 277 nM
34 | B28 | 6.79 nM
35 | B7 | 1.4 nM
36 | B8 | 0.116 nM
37 | B9 | 0.104 nM
38 | B29 | 32.5 nM
39 | B10 | 0.064 nM
40 | B30 | 0.67 nM
41 | B31 | 0.25 nM
